Assay: soluble on expression in E. coli; label from the status in PepcDB or PDB records

Sequence | soluble on expression in E. coli
SMRTAQEVETYRRSKEITVRGHNCPKPVLNFYEANFPANVMDVIARQNFTEPTAIQAQGWPVALSGLDMVGVAQTGSGKTLSYLLPAIVHINHQPFLERGDGPICLVLAPTRELAQQVQQVAAEYCRACRLKSTCIYGGAPKGPQIRDLERGVEICIATPGRLIDFLECGKTNLRRTTYLVLDEADRMLDMGFEPQIRKIVDQIRPDRQTLMWSATWPKEVRQLAEDFLKDYIHINIGALEL | soluble
MGSDKIHHHHHHMSKFKVKRLTAHILMLKVINDMLKYSFHLTLTQVKLLNLLVKYDNSDSNSASIDRLLKMKEIQSKMALLQMLSYLNNHQWLLKGRDQRDQRKLTISINKMHIDKIEYMNNELSDYIERYFGQYTFDFSCDYVSYLLSSQELFRNLKCYLNMCQLTLEELYVLGILNLHKGQLTVKELQGEFHHPIFAVSPILKCLILKGLVKKERCELDERRVIVTIKREKFSKVTMLIQACYNYLEKGIQVKLNNK | not soluble
MGSDKIHHHHHHLKVIAIGDNVVDLYPADKQMYLGGHAANTAVFAAELGLQAAYIGTFGNDARGDFARRMLVERGVDVQHSLQYVGRNAFTTITGKDGARRKVVGEPPQELRLDPEDIAYINSFDLVYLNSESHADAFLQAITARKVYDFSILDDDKLFKKIAPQIDLAYLSGKARSDDDVEALMRRVAAAGCDRIVCSRGLRGSAALVDGMMSWQQALGVKAVDSLGAGDAYITSFAATLYSSSKPTLDAKVSESLSHAAKFASAQVLLPGSFGHGAPLIS | not soluble
MYQVITMYGDNEPWWFFDDWQEDIVQEKTFDNLTDAETYYVEVWQKLSQNYTYVNTKPNYLTAFWNDGEERWCEECDEDLQQYFGLALLENHHAVTFENKAEFTTISNHFGKTKFCKRKVI | not soluble
MKIKTILTPVTCALLISFSAHATNADNYKNVINRTGAPQYMKDYDYDDHQRFNPFFDLGAWHGHLLPDGPNTMGGFPGVALLTEEYINFMASNFDRLTVWQDGKKVNFTLEAYNIPGALVQKLTAKDVQVEMTLRFATPRTSLLETKIISNKPLDLVWDGELLEKLEAKEGKPLSDKTIAGEYPDYQRKISATRDGLKVTFGKVRATWDLLTSGESEYQVHKSLPVQTEINGNRFTSKAHINGSTTLYTTYSHLLTSQEVSKEQMQIRDILARPAFYLTASQQRWEEYLKKGLTNPDATPEQTRVAVKAIETLNGNWRSPGGAVKYNTVTPSVTGRWFSGNQTWPWDTWKQAFAMAHFNPDIAKENIRAVFSWQIQPGDSVRPQDVGFVPDLIAWNLSPERGGDGGNWNERNTKPSLAAWSVMEVYNVTQDKTWVAEMYPKLVAYHDWWLRNRDHNGNGVPEYGATRDKAHNTESGEMLFTVKKGNKEETQSGLNNYARVVEKGQYDSLEIPAQVAASWESGRDDAAVFGFIDKEQLDKYVASGGKRSDWTVKFAENRSQDGTLLGYSLLQESVDQASYMYSDNHYLAEMATILGKPEEAKRYRQLAQQLADYINTCMFDPATQYFYDVRIEDKPLANGCAGKPIVERGKGPEGWSPLFNGAATQANADAVVKVMLDPKEFNTFVPLGTAALTNPAFGADIYWRGRVWVDQFWFGLKGMERYGYRDDALKLADTFFRHAKGLTADGPIQENYNPLTGAQQGAPNFSWSAAHFYMLYNDFFRKQ | not soluble
MFKYSKDGVSVLTILDTRRAKINGLFPVKVQVVFRRKQKYYSTGKELSKEDWDRLLKAKSQLLMEVRTDIESSFSIIKQQVSELIQKGEFSFEILSIRLGRHTKEINLRTAFELKMKELEDNEQASTYLNYRSALKSLECFGGTNIPLDRITVEWLKHCERFWISNGKSYSSVSIYFRTLKCILNRAVRDGILKESSFPFGKNKYEIPEGHGRKLALTLPEIKRVMSFQDSTNELEEFRDLWFFSYLCNGINFMDLLFLQYSNIVDGEICFIRSKTSRTTKHSKEIRATITPEMWDIIHKWGNPNISPQTYIFKYAKGNEDAFEKIKLVRRIVTKCNRKLKKIAQGTGIAQLTTYTARHSFATVLKRGGAKTSYISESLGHSNLTVTENYLACFEKEERIRNARLLTNFDNKM | not soluble
MLNDGEVTPSRHEILSMVKKHSKSLGKTSLDEQDASDVEMDSNFWHGVFDVYFVRCMESRRRQDDDLLFFVRKLSCKSYGLTENEDAPAPYFVRRWAPKLDELLGESLAEVDWRKSFYLNMIAHTSFTVTVAICSNEALKTYQGSKDTKLSPIYKVVKTVYASPSRVNFHLDSKKEVETTPAYPEICFAVDDFDSTFDAVVLTDKDHCYCVLLNSHDGAAFPSATVKDSSDSNTNADPRTVKDPKVTLFSGFVSYQMVREAYEGGRNRFGSLLSLGHITGKADRLYMRGPGGRGEVEVAVSGVVDQSQVVLGPVSPMSSKKSIDLGSIFRKAASVASVAAKHAIAAATASYDEDEMFPLKCCLMSISLPWDTIAHDLLFKATPPVNME | soluble
